Reference: US20260193348A1 (ANTENGENE BIOLOGICS, published 2026)

Assays:
[1] = molecular target: T1, GPRC5D (G-protein coupled receptor family C group 5 member D), human, on multiple myeloma cell lines (human, UniProt Q9NZD1 1-345); test: cell-based or functional assay
[2] = molecular target: T2, CD3 (Cluster of Differentiation 3 protein), human, on T cells / Jurkat cells (human, UniProt P07766 23-207; P04234 22-171; P09693 23-182); test: FACS, Jurkat cells, antibody at 50 µg/ml
T2 construct: whole, on cells; part of the TCR-CD3 complex; also called human CD3
T2 sequence (P07766 23-207, chain 1 of 3): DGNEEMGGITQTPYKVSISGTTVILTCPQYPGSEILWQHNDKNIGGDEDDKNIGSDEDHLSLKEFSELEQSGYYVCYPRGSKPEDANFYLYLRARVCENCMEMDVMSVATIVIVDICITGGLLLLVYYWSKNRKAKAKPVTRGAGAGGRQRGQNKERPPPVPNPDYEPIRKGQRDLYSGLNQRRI
T2 sequence (P04234 22-171, chain 2 of 3): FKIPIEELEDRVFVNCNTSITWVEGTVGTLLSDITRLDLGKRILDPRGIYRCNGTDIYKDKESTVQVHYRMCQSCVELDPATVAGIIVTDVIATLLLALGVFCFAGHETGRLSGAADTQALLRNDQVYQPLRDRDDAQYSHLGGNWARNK
T2 sequence (P09693 23-182, chain 3 of 3): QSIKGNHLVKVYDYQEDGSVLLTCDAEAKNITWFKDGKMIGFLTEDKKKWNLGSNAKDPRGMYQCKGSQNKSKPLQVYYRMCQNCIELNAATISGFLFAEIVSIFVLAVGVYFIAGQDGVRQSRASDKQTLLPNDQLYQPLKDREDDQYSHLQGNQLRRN
Protocol: (§1) The binding affinities of the generated humanized Fab-scFv-Fab bispecific antibodies were determined by FACS analysis. […] (a) Jurkat cells were washed by Staining Buffer (PBS+1% BSA) in round bottom 96-well plate. [0833] (b) Antibody dilutions and cells were added to each well, incubated at 4 degrees for 1 hour. [0834] (c) Cells were spined down at 300 g for 3 minutes, and the supernatants were discarded. [0835] (d) Cells were washed with Staining Buffer. […] (e) Step (d) was repeated and the cells were incubated for 0.5 hours at 4 degrees with secondary antibody in Staining Buffer. [0837] (f) After incubation, step (d)-(e) were repeated. […] (g) Staining Buffer was added and fluorescence signals were recorded by flow cytometry.

[3] = molecular target: T1, GPRC5D (G-protein coupled receptor …); test: cell-based or functional assay; remark: listed apart in the source
GPRC5D on MM.1S cells [4] = molecular target: T3, GPRC5D on MM.1S cells (human, UniProt Q9NZD1 1-345); test: FACS on MM.1S cells
T3 construct: whole, on cells; MM.1S is called a GPRC5D positive expressed cell line and human multiple myeloma cells; also called G-protein coupled receptor family C group 5 member D
T3 sequence (Q9NZD1 whole entry): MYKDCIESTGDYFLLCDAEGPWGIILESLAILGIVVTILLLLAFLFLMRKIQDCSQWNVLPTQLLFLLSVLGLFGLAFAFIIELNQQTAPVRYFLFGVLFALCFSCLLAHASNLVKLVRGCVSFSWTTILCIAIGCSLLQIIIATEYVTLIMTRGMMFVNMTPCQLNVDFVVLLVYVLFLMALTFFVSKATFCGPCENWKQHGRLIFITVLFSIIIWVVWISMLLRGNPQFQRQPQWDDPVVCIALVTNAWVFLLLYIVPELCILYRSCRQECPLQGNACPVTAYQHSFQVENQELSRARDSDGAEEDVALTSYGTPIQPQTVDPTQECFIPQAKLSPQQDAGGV
Protocol: To evaluate the binding affinity of the generated chimeric bispecific antibody to T cells, the isolated CD3⁺ T cells were stained by antibodies and the binding affinity was determined by FACS analysis. The protocol of FACS analysis is described as follows: [0785] (a) CD3⁺ T cells were isolated from normal donors. [0786] (b) The isolated CD3⁺ T cells were washed by Staining Buffer (PBS+1% BSA) in round bottom 96-well plate. […] (c) Antibody dilutions were added to each well and mixed with the CD3+ T cells, incubated at 4 degrees for 1 hour. […] (d) Cells were spined at 300 g for 3 minutes, then the supernatants were discarded. [0789] (e) Cells were washed with Staining Buffer. [0790] (f) Step (d) was repeated, and the cells were incubated with secondary antibody in Staining Buffer for 0.5 hours at 4 degrees. [0791] (g) After incubation, step (d)-(e) were repeated. [0792] (h) Cells were resuspended in Staining Buffer and fluorescence signals were recorded by flow cytometry.
The binding affinities of the generated humanized Fab-scFv-Fab bispecific antibodies to MM.1S were evaluated by FACS analysis. The protocol for FACS analysis is identical to that described in Example 1.2, except that MM.1S were used in this example.

CD3 on Jurkat cells = molecular target: T4, CD3 on Jurkat cells (UniProt P07766 23-207; P04234 22-171; P09693 23-182); test: FACS on Jurkat cells
T4 construct: whole, on cells; On the cell, CD3 stands in the TCR-CD3 complex; also called cluster of differentiation 3
T4 sequence (P07766 23-207, chain 1 of 3): as the sequence (P07766 23-207, chain 1 of 3) above
T4 sequence (P04234 22-171, chain 2 of 3): as the sequence (P04234 22-171, chain 2 of 3) above
T4 sequence (P09693 23-182, chain 3 of 3): as the sequence (P09693 23-182, chain 3 of 3) above
Protocol: as §1
The binding affinities of the generated humanized Fab-scFv-Fab bispecific antibodies were determined by FACS analysis. The protocol for FACS analysis is identical to that described in Example 3.2, except that different test antibodies were used.

GPRC5D on MM.1S cells [5] = molecular target: T3, GPRC5D on MM.1S cells; test: cell-based or functional assay
GPRC5D on MM.1S cells [6] = molecular target: T3, GPRC5D on MM.1S cells; test: cell-based or functional assay; remark: listed apart in the source

T1 sequence (Q9NZD1 whole entry): as the sequence (Q9NZD1 whole entry) above

| Binder | EC50 (nM), luciferase assay, MM.1S [1] | Top (RLU), luciferase assay, MM.1S [1] | Top (RLU), luciferase assay, MOLP-8 [1] | MFI (50 µg/ml) [2] | IC50 (nM), T-Cell Dependent Cytotoxicity, MM.1S [3] | IC50 (nM), T-Cell Dependent Cytotoxicity, MOLP-8 [3] | IC50 (nM), T-Cell Dependent Cytotoxicity, RPMI8226 [3] | Top (%), T-Cell Dependent Cytotoxicity, MM.1S [3] | Top (%), T-Cell Dependent Cytotoxicity, MOLP-8 [3] | Top (%), T-Cell Dependent Cytotoxicity, RPMI8226 [3] | Ratio of EC50 (relative to ATG-Bis-40E9) (GPRC5D on MM.1S cells [4]) | Ratio of Top MFI (relative to ATG-Bis-40E9) (GPRC5D on MM.1S cells [4]) | Ratio of EC50 (relative to ATG-Bis-40E9) (CD3 on Jurkat cells) | Ratio of Top MFI (relative to ATG-Bis-40E9) (CD3 on Jurkat cells) | Ratio of EC50 (relative to ATG-Bis-40E9), luciferase assay on MM.1S (GPRC5D on MM.1S cells [5]) | Ratio of Top RLU (relative to ATG-Bis-40E9), luciferase assay on MM.1S (GPRC5D on MM.1S cells [5]) | Ratio of IC50 (relative to ATG-Bis-40E9), MM.1S cytotoxicity (GPRC5D on MM.1S cells [6]) | Ratio of Top cytotoxicity (relative to ATG-Bis-40E9), MM.1S cytotoxicity (GPRC5D on MM.1S cells [6]) | other results |
| --- | --- | --- | --- | --- | --- | --- | --- | --- | --- | --- | --- | --- | --- | --- | --- | --- | --- | --- | --- |
| Bis-40E9-L2H3 (bispecific antibody, human IgG1, kappa, L234A L235A, Fab-scFv-Fab, LALA; also called humanized 2+1 bispecific antibody with scFv 40E9-L2H3) heavy 1: not shown heavy 2: EVQLVQSGAEVKKPGASVKVSCKASGYTFTSYVIHWVRQAPGQGLEWMGYFNPYNDGTKYNEEFKGRVTLTSDKSTSTAYMELRSLRSDDTAVYYCARGGVRRYFDVWGQGTTVTVSSASTKGPSVFPLAPSSKSTSGGTAALGCLVKDYFPEPVTVSWNSGALTSGVHTFPAVLQSSGLYSLSSVVTVPSSSLGTQTYICNVNHKPSNTKVDKKVEPKSCGGGGSGGGGSEVQLVQSGAEVKKPGSSVKVSCKASGYTFSSYVIHWVRQAPGQCLEWMGYINPYNDVIKYNEKFKGRVTLTSDKSTSTAYMELSSLRSEDTAVYYCARDSYYSYDGFAYWGQGTLVTVSSGGGGSGGGGSGGGGSGGGGSEIVLTQSPDFQSVTPKEKVTITCSASSSVSYMHWYQQKPDQSPKRLIYDTSKLASGVPSRFSGSGSGTDFTLTINSLEAEDAATYYCQQWSSNPPTFGCGTKVEIKGGGGSGGGGSDKTHTCPPCPAPEAAGGPSVFLFPPKPKDTLMISRTPEVTCVVVDVSHEDPEVKFNWYVDGVEVHNAKTKPREEQYNSTYRVVSVLTVLHQDWLNGKEYKCKVSNKALPAPIEKTISKAKGQPREPQVCTLPPSREEMTKNQVSLSCAVKGFYPSDIAVEWESNGQPENNYKTTPPVLDSDGSFFLVSKLTVDKSRWQQGNVFSCSVMHEALHNHYTQKSLSLSPGK light: DIQMTQSPSSLSASVGDRVTITCRASQDIGSNLNWLQQKPGKAIKRLIYATFGLDSGVPSRFSGSRSGTDFTLTISSLQPEDFATYYCQQYASFPYTFGGGTKVEIKRTVAAPSVFIFPPSDEQLKSGTASVVCLLNNFYPREAKVQWKVDNALQSGNSQESVTEQDSKDSTYSLSSTLTLSKADYEKHKVYACEVTHQGLSSPVTKSFNRGEC | 0.0898 nM | 1940 RLU | 221 RLU | 341 MFI | 0.00571 nM | 0.00166 nM | 0.06 nM | 66.8% | 71.9% | 11.5% | – | – | – | – | – | – | – | – | – |
| Bis-40E9-L2H16 (bispecific antibody, Fab-scFv-Fab format with LALA mutations; copies: 1 + 1 + 2) heavy 1: not shown heavy 2: EVQLVQSGAEVKKPGASVKVSCKASGYTFTSYVIHWVRQAPGQGLEWMGYFNPYNDGTKYNEEFKGRVTLTSDKSTSTAYMELRSLRSDDTAVYYCARGGVRRYFDVWGQGTTVTVSSASTKGPSVFPLAPSSKSTSGGTAALGCLVKDYFPEPVTVSWNSGALTSGVHTFPAVLQSSGLYSLSSVVTVPSSSLGTQTYICNVNHKPSNTKVDKKVEPKSCGGGGSGGGGSEVQLVQSGAEVKKPGSSVKVSCKASGYTFSDYVIHWVRQAPGQCLEWMGYINPYNDVIKYNEKFKGRVTLTSDKSTSTAYMELSSLRSEDTAVYYCARDSYYSYDGFAYWGQGTLVTVSSGGGGSGGGGSGGGGSGGGGSEIVLTQSPDFQSVTPKEKVTITCSASSSVSYMHWYQQKPDQSPKRLIYDTSKLASGVPSRFSGSGSGTDFTLTINSLEAEDAATYYCQQWSSNPPTFGCGTKVEIKGGGGSGGGGSDKTHTCPPCPAPEAAGGPSVFLFPPKPKDTLMISRTPEVTCVVVDVSHEDPEVKFNWYVDGVEVHNAKTKPREEQYNSTYRVVSVLTVLHQDWLNGKEYKCKVSNKALPAPIEKTISKAKGQPREPQVCTLPPSREEMTKNQVSLSCAVKGFYPSDIAVEWESNGQPENNYKTTPPVLDSDGSFFLVSKLTVDKSRWQQGNVFSCSVMHEALHNHYTQKSLSLSPGK light: DIQMTQSPSSLSASVGDRVTITCRASQDIGSNLNWLQQKPGKAIKRLIYATFGLDSGVPSRFSGSRSGTDFTLTISSLQPEDFATYYCQQYASFPYTFGGGTKVEIKRTVAAPSVFIFPPSDEQLKSGTASVVCLLNNFYPREAKVQWKVDNALQSGNSQESVTEQDSKDSTYSLSSTLTLSKADYEKHKVYACEVTHQGLSSPVTKSFNRGEC | – | – | – | – | – | – | – | – | – | – | 0.913 ratio | 0.972 ratio | 2.97 ratio | 0.62 ratio | 6.02 ratio | 0.84 ratio | 4.93 ratio | 0.98 ratio | – |
| Bis-40E9-L2H14 (bispecific antibody, Fab-scFv-Fab format with LALA mutations; copies: 1 + 1 + 2) heavy 1: not shown heavy 2: EVQLVQSGAEVKKPGASVKVSCKASGYTFTSYVIHWVRQAPGQGLEWMGYFNPYNDGTKYNEEFKGRVTLTSDKSTSTAYMELRSLRSDDTAVYYCARGGVRRYFDVWGQGTTVTVSSASTKGPSVFPLAPSSKSTSGGTAALGCLVKDYFPEPVTVSWNSGALTSGVHTFPAVLQSSGLYSLSSVVTVPSSSLGTQTYICNVNHKPSNTKVDKKVEPKSCGGGGSGGGGSEVQLVQSGAEVKKPGSSVKVSCKASGYTFSSYVIHWVRQAPGQCLEWMGYINPYNDVIKYNEKFKGRVTLTSDKSTSTAYMELSSLRSEDTAVYYCARESYYSYDGFAYWGQGTLVTVSSGGGGSGGGGSGGGGSGGGGSEIVLTQSPDFQSVTPKEKVTITCSASSSVSYMHWYQQKPDQSPKRLIYDTSKLASGVPSRFSGSGSGTDFTLTINSLEAEDAATYYCQQWSSNPPTFGCGTKVEIKGGGGSGGGGSDKTHTCPPCPAPEAAGGPSVFLFPPKPKDTLMISRTPEVTCVVVDVSHEDPEVKFNWYVDGVEVHNAKTKPREEQYNSTYRVVSVLTVLHQDWLNGKEYKCKVSNKALPAPIEKTISKAKGQPREPQVCTLPPSREEMTKNQVSLSCAVKGFYPSDIAVEWESNGQPENNYKTTPPVLDSDGSFFLVSKLTVDKSRWQQGNVFSCSVMHEALHNHYTQKSLSLSPGK light: DIQMTQSPSSLSASVGDRVTITCRASQDIGSNLNWLQQKPGKAIKRLIYATFGLDSGVPSRFSGSRSGTDFTLTISSLQPEDFATYYCQQYASFPYTFGGGTKVEIKRTVAAPSVFIFPPSDEQLKSGTASVVCLLNNFYPREAKVQWKVDNALQSGNSQESVTEQDSKDSTYSLSSTLTLSKADYEKHKVYACEVTHQGLSSPVTKSFNRGEC | – | – | – | – | – | – | – | – | – | – | 1.02 ratio | 0.975 ratio | 2.31 ratio | 0.83 ratio | 5.77 ratio | 0.81 ratio | 10.4 ratio | 0.98 ratio | – |
| Bis-40E9-L2H1 (bispecific antibody, Fab-scFv-Fab (2+1), LALA; not shown: CH1; CL; CH2-CH3 with L234A, L235A; heavy chain constant region with L234A, L235A) heavy: EVQLVQSGAEVKKPGASVKVSCKASGYTFTSYVIHWVRQAPGQGLEWMGYFNPYNDGTKYNEEFKGRVTLTSDKSTSTAYMELRSLRSDDTAVYYCARGGVRRYFDVWGQGTTVTVSS heavy (part 1 of 2): EVQLVQSGAEVKKPGASVKVSCKASGYTFTSYVIHWVRQAPGQGLEWMGYFNPYNDGTKYNEEFKGRVTLTSDKSTSTAYMELRSLRSDDTAVYYCARGGVRRYFDVWGQGTTVTVSS heavy (part 2 of 2): GGGGSGGGGSEVQLVQSGAEVKKPGSSVKVSCKASGGTFSSYVIHWVRQAPGQCLEWMGYINPYNDVIKYNEKFKGRVTITADKSTSTAYMELSSLRSEDTAVYYCARDSYYSYDGFAYWGQGTLVTVSSGGGGSGGGGSGGGGSGGGGSEIVLTQSPDFQSVTPKEKVTITCSASSSVSYMHWYQQKPDQSPKRLIYDTSKLASGVPSRFSGSGSGTDFTLTINSLEAEDAATYYCQQWSSNPPTFGCGTKVEIKGGGGSGGGGS light: DIQMTQSPSSLSASVGDRVTITCRASQDIGSNLNWLQQKPGKAIKRLIYATFGLDSGVPSRFSGSRSGTDFTLTISSLQPEDFATYYCQQYASFPYTFGGGTKVEIK | 0.18 nM | 2510 RLU | 1190 RLU | 113 MFI | 0.0437 nM | 0.0069 nM | 0.356 nM | 56.3% | 58.3% | 25.9% | – | – | – | – | – | – | – | – | EC50 (nM), luciferase assay, L363 [1]: 0.258 nM; EC50 (nM), luciferase assay, MOLP-8 [1]: 0.00654 nM; EC50 (nM), luciferase assay, RPMI8226 [1]: 1.05 nM; Top (RLU), luciferase assay, L363 [1]: 898 RLU; Top (RLU), luciferase assay, RPMI8226 [1]: 261 RLU |
